Publication PMC7072298
Each block holds one substance with its values, some of them ahead of it.

How the values were obtained:
[1] = target: HSP90αM domain (solid phase assays of Figure 2B and 2C); assay: ELISA; solid phase protein–protein interaction assay, dose-dependent; HSP90M domain (100 µg/mL) coated on plate, FN 30, 45, 70 and 120 kDa fragments at varying concentrations in solution
[2] = target: glucocorticoid receptor LBD (Homo sapiens) (UniProt P04150); conditions: cited from earlier work
Tau (Homo sapiens) = Tau (Homo sapiens) (UniProt P10636); conditions: cited from earlier work
Sequence of Tau (Homo sapiens) (P10636 2-758): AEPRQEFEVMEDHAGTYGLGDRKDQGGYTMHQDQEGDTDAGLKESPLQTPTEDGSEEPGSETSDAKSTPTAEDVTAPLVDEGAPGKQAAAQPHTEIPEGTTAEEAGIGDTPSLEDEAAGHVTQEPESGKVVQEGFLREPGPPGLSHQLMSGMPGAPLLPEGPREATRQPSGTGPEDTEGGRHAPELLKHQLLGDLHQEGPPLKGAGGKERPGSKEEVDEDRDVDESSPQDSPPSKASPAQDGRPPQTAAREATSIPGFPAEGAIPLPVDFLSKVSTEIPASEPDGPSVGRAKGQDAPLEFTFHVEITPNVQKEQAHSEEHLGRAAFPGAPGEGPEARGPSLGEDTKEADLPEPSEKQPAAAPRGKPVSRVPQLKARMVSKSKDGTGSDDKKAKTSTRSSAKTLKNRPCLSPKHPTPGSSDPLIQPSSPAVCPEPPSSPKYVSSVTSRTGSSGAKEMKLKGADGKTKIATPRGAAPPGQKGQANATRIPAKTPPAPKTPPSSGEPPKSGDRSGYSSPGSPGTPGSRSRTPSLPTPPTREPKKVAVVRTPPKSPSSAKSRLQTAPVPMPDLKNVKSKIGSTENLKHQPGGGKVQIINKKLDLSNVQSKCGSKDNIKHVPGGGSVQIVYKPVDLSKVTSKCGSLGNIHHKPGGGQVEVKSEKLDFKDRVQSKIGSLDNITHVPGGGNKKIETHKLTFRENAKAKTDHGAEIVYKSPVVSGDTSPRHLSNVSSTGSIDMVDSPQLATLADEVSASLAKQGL

Sequence of glucocorticoid receptor LBD (Homo sapiens) (P04150 523-777): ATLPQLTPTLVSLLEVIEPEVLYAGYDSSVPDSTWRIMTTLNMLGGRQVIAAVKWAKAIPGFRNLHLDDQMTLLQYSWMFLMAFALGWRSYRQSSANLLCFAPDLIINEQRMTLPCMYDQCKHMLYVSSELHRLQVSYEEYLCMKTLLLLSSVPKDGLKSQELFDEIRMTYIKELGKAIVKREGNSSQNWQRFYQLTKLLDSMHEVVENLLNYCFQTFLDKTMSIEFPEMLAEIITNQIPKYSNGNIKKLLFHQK

Substance: HSP90 (from UniProt P02829)
- Kd [2]: 800 nM

Substance: HSP90 (from UniProt P07900)
- Kd (Tau (Homo sapiens)): 4800 nM

Substance: N-terminal FN 30-kDa heparin-binding fragment (FN30) (domain or fragment)
- Kd [1]: 70 nM

Next, values leading:

- Kd of FN45 relative to that of FN30 (fold higher) [1]: 3 fold
Substance: 45-kDa gelatin-binding FN fragment (FN45) (domain or fragment)

- Kd [1]: 500 nM
Substance: 70-kDa N-terminal FN fragment (FN70) (domain or fragment)
